Experimental data from patent US20160194407A1 (AstraZeneca / MedImmune, published 2016).
Numbering of substitutions follows the chain as printed.

Assays:
[1] = target: T1, CD73 construct with chicken N- and C-terminal domain sequence and knocked-in human V144 and N185; test: SPR ProteOn, MEDI9447 dilutions from 5 nM to 0.3 nM
T1 construct: K180 is conserved between chicken and human; also called chicken CD73 replaced with V144 and N185; knock-in
T1 chain: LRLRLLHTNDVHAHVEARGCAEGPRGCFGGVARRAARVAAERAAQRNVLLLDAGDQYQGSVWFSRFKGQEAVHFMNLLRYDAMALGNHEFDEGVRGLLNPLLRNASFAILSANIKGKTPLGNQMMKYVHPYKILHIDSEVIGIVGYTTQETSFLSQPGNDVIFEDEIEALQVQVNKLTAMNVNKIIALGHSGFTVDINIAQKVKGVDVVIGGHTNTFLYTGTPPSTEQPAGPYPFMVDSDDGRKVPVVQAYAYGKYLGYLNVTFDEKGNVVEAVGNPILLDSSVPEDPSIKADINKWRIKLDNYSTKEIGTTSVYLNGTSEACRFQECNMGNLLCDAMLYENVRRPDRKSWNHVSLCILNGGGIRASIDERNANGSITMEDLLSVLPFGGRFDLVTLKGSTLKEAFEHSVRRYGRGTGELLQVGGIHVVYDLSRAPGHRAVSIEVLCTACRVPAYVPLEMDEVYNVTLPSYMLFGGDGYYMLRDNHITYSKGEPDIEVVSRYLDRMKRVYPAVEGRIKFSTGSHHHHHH

cynomolgus CD73 on cells = target: T2, cynomolgus CD73 on cells (cynomolgus); test: flow cytometry on MK-1 cells, one-site fit of median fluorescence
T2 construct: whole, on cells; also called native CD73 on MK-1 cells (cynomolgus)

murine CD73 on cells = target: T3, murine CD73 on cells (murine, UniProt Q61503 29-551); test: cell-based or functional assay
T3 sequence (looked up): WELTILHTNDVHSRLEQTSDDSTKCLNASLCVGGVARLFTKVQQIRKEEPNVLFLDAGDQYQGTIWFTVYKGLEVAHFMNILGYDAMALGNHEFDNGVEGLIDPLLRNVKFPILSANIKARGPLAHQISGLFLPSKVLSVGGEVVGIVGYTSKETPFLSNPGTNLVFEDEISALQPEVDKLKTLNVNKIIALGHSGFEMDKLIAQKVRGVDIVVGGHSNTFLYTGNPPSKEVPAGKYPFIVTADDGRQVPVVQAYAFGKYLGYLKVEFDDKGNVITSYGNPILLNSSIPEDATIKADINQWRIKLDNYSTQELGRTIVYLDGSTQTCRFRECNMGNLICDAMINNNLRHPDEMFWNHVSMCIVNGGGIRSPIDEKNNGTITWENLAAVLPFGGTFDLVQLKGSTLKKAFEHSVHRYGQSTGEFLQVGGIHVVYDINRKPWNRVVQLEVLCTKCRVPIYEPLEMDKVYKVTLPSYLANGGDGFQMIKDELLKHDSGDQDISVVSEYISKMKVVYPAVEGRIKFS

CD73 chimera KO_Nterm = target: T4, CD73 chimera KO_Nterm (chicken (Gallus gallus); human); test: SPR ProteOn, CD73 variant on HTG chip
T4 construct: Human limits converted from mature numbering (+26); also called N-terminal domain-swapped CD73
T4 chain: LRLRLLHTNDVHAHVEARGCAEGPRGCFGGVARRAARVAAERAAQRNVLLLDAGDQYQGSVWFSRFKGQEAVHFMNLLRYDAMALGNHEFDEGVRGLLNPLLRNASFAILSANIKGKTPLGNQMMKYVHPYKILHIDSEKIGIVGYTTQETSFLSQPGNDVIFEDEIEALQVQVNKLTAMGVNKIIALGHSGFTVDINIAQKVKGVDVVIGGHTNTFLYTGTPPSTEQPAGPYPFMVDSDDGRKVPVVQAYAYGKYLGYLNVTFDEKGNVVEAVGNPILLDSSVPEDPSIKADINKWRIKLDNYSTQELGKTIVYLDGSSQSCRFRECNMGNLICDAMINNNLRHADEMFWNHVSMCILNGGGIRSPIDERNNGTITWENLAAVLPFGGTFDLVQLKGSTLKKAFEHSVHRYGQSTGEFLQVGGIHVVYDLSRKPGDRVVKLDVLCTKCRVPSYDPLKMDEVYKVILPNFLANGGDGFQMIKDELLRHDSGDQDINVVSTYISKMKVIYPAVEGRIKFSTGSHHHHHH

human CD73 K180A + N185G = target: T5, human CD73 K180A + N185G (human, UniProt P21589 27-553, K180A; N185G); test: SPR ProteOn, CD73 variant on HTG chip
T5 sequence: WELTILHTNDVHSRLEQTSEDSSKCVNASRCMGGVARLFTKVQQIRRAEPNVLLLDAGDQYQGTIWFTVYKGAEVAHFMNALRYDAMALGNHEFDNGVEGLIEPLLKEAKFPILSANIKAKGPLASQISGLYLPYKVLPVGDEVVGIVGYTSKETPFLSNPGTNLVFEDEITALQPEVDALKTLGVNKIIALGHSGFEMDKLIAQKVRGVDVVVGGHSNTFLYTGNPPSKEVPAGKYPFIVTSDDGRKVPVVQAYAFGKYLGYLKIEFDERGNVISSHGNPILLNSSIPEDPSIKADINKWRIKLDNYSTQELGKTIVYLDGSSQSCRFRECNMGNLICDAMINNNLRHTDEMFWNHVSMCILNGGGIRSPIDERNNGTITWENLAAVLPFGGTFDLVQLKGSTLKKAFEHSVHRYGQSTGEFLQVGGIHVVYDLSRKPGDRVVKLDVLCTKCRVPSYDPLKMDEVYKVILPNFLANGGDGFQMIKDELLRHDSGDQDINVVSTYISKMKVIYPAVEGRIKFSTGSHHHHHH

human CD73 V144K + N185G = target: T6, human CD73 V144K + N185G (human, UniProt P21589 27-553); test: SPR ProteOn, CD73 variant on HTG chip
T6 chain: T5 sequence with V144K, A180K, T350A

B1: MEDI9447 (antibody, V domains shown)
VH: EVQLLESGGGLVQPGGSLRLSCAASGFTFSSYAYSWVRQAPGKGLEWVSAISGSGGRTYYADSVKGRFTISRDNSKNTLYLQMNSLRAEDTAVYYCARLGYGRVDEWGRGTLVTVSS
VL: QSVLTQPPSASGTPGQRVTISCSGSLSNIGRNPVNWYQQLPGTAPKLLIYLDNLRLSGVPDRFSGSKSGTSASLAISGLQSEDEADYYCATWDDSHPGWTFGGGTKLTVL
notes: also called clone 10.3 antibody; 73combo3
With B1 as the binder, how does the “fold of the KD for wild-type CD73” value [1] read?
The value was < 20 fold.

And the Kd (cynomolgus CD73 on cells)?
Its Kd is 84 pM.

And the “FabZAP internalization, max toxicity, 4T1” value (murine CD73 on cells)?
The value was 97%.

Does B1 bind (CD73 chimera KO_Nterm)?
Result: no binding (tested: 5 nM to 0.3 nM)

Does B1 bind (human CD73 K180A + N185G)?
Result: no binding

Does B1 bind (human CD73 V144K + N185G)?
Result: no binding
